Source: US20170008975A1, “Anti-Tissue Inhibitor of Metalloproteinase-4 (Timp-4) Antibodies and Methods of Use Thereof” (LANKENAU INSTITUTE FOR MEDICAL RESEARCH, priority 2014, published 2017)
“Also recorded” adds a separate entry of the source. Each block holds one molecule with its values, some of them ahead of it.

Experiments:
[1] = tested on: AKT; assay: Western blotting of AKT activation in breast cancer cell cultures; format: cell-based
Text: TIMP-4 appears to induce PI3K/AKT signaling, a critically important cancer cell pathway (Cantley, L. C. (2002) Science, 296:1655-7; Lopez-Knowles et al. (2010) Int. J. Cancer, 126:1121-31), through binding to the tetraspanin CD63 (Jung et al. (2006) EMBO J., 25:3934-42) (FIG. 3). […] Prior to clinical use of Her-2 targeting therapy (Herceptin®), breast cancers that were positive for Her-2 were, like TNBCs, associated with fast growth rate, early recurrence and distant disease resulting in a prognosis of poor survival (Hsieh et al. (2007) Br. J. Cancer, 97:453-7).

[2] = biological target: T1, CD63 (Homo sapiens, UniProt P08962); assay: Immunoprecipitation and immunofluorescence staining for CD63 binding; conditions: MDA-MB-468, 2nM TIMP-4
T1 construct: endogenous in cells; host or cells: MDA-MB-468
T1 sequence (P08962 1-238): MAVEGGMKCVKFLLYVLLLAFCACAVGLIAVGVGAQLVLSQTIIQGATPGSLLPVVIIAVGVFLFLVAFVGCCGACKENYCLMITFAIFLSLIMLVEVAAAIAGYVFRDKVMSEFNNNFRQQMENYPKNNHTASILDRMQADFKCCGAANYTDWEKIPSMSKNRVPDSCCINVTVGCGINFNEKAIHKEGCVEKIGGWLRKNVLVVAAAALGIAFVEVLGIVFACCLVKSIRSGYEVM
Text: Human breast cancer cell-lines expressing the tetraspanin CD63 (Chirco et al. (2006) Cancer Met. Rev., 25:99-113), as determined by FACS analysis, include MDA-MB-468.

[3] = tested on: MDA-MB-468 cells; assay: Clonogenic growth assay after irradiation; format: cell-based, human; conditions: elevated TIMP-4 conditions, N=3
Experimental: (§1) MDA-MB-468 cell were compared to the CD63 negative SK-Br-3 cells using a modified Boyden chamber to assess invasion in absence (Ctrl) and presence of 2nM TIMP-4 (N=6). […] Clonogenic growth assay (Ayene et al. (2000) Int. J. Radiat. Biol., 76:1523-1531) was used to determine the survival advantage for MDA-MB-468 cells under elevtedTIMP-4 conditions after irradiation (N=3). […] This effect can be prevented by pre-treating the cells with LY294002. […] Further, cells cultured in normal medium began to detach and die as they reached contact inhibition (day 10), whereas cells in TIMP-4-supplemented media continued to survive and grow. Growth augmented by TIMP-4 could be blocked by the addition of the TIMP-4 mAb of the instant invention. Briefly, TIMP-4 mAbs were obtained by delivering a purified glutathione-S-transferase (GST) chimeric protein comprising the human full-length 224 amino acid TIMP-4 (GenBank Accession No. NM_003256.2).

[4] = tested on: MDA-MB-468 cell; assay: Modified Boyden chamber invasion, MDA-MB-468; format: cell-based, human; conditions: 2nM TIMP-4 for 24 hours, N=6
Experimental: as §1

[5] = tested on: triple-negative human breast cancer cell-line MDA-MB-468; assay: Growth of MDA-MB-468 in culture with or without 2 nM TIMP-4; format: cell-based; conditions: normal media supplemented with 2 nM TIMP-4
Experimental: as §1

[6] = tested on: MDA-MB-468 cells; assay: MDA-MB-468 orthotopic xenograft in mammary fat pad of nude mice with TIMP-4 or placebo slow-release pellets; format: in vivo; conditions: TIMP-4 slow-release pellets implanted two weeks before cells
Experimental: FIGS. 7A and B show the effect of modulating TIMP-4 levels in a pilot animal study. Slow-release pellets were used to elevate the TIMP-4 (FIG. 7A) levels in the mammary fatpad (mfp) prior to implanting human TNBC cells. Placebo pellets (FIG. 7B) were used for control conditions. Once tumors were established, twice weekly doses of the anti-TIMP-4 or iso-type control mAb were administered during a two-week period (i.e. in total four treatments). Animals were followed for an additional two weeks post-treatment.
Inguinal mammary fat pads in nude mice were implanted with slow-release pellets (Innovative Research of America, Fla.) containing TIMP-4 to elevate its levels. Two weeks later, MDA-MB-468 cells were mixed with Matrigel™ (LDEV and phenol red free, BD Biosciences) and injected at the same site as an orthotopic xenograft. […] Tumor-bearing mice from both the groups shown were then randomly divided in half and treated by i.p. injection with 1 mg IgG of TIMP-4 mAb (clone 18:4-7) or a matched isotype control IgG2bk (BioXCell, N.H.), in sterile azide-free solution, administered twice weekly for 2 weeks. […] The antibody had no effect on animals without elevated TIMP-4 (FIG. 7B).

[7] = tested on: CD63 negative SK-Br-3 cells; assay: Modified Boyden chamber invasion, SK-Br-3; format: cell-based, human; conditions: 2nM TIMP-4 for 24 hours, N=6
Experimental: as §1

Molecule: TIMP-1: member of the mammalian TIMP family, secreted circulating protein
activation of AKT (pAkt Ser473) [1]: can activate AKT

binding to CD63 [2]: functional binding partner
B1: TIMP-4: tissue inhibitor of metalloproteinase-4 protein (R&D Systems, Inc), added to media or given in slow-release pellets (protein, UniProt Q99727 30-224, looked up)
Metalloproteinase inhibitor 4: CSCAPAHPQQHICHSALVIRAKISSEKVVPASADPADTEKMLRYEIKQIKMFKGFEKVKDVQYIYTPFDSSLCGVKLEANSQKQYLLTGQVLSDGKVFIHLCNYIEPWEDLSLVQRESLNHHYHLNCGCQITTCYTVPCTISAPNECLWTDWLLERKLYGYQAQHYVCMKHVDGTCSWYRGHLPLRKEFVDIVQP
survival of MDA-MB-468 cells after irradiation [3]: increased survival
invasiveness of MDA-MB-468 [4]: increased the invasiveness
growth rate of MDA-MB-468 [5]: increased growth rate; also recorded: relatively faster growth rate
tumor size and growth rate with TIMP-4 pellets versus placebo pellets [6]: Differences in tumor size and growth rate
activation of AKT (pAkt Ser473) [1]: can activate AKT; also recorded: sufficient to activate the PI3K/AKT pathway
invasiveness of SK-Br-3 [7]: did not increase the invasiveness
